Measured values: patent US20070275898A1 (CENTRE NATIONAL DE LA RECHERCHE SCIENTIFIQUE, published 2007)

Target: β subunit of DNA polymerase III of Escherichia coli (Escherichia coli, UniProt P0A988 1-366)
Assay: cell-based or functional assay

Chain of β subunit of DNA polymerase III of Escherichia coli (P0A988 whole entry): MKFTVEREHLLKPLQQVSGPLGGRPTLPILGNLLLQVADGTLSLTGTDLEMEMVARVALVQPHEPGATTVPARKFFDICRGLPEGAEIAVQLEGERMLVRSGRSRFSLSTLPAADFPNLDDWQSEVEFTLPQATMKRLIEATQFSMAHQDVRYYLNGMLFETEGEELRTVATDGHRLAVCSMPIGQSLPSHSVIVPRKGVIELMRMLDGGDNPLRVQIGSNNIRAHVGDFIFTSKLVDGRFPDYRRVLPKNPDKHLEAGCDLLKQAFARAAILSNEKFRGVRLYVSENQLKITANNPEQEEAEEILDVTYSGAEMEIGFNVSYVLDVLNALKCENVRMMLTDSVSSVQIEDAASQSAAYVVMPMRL

Binder: VTLLDPQMERQLVLGL [P16 peptide, the 16 last residues of Pol IV DNA polymerase of E. coli]
- β-dependent Pol IV activity (ratio of β-dependent to β-independent polymerase activities): ~30 fold decrease
